Measurements: paper PMC9813358, “Insights into the GSDMB-mediated cellular lysis and its targeting by IpaH7.8” (Nature Communications, 2023)

B1: human GSDMD [human] / IpaH7.8 protein (residues 23–565) [Shigella flexneri] (parent)
chain 1: MGSAFERVVRRVVQELDHGGEFIPVTSLQSSTGFQPYCLVVRKPSSSWFWKPRYKCVNLSIKDILEPDAAEPDVQRGRSFHFYDAMDGQIQGSVELAAPGQAKIAGGAAVSDSSSTSMNVYSLSVDPNTWQTLLHERHLRQPEHKVLQQLRSRGDNVYVVTEVLQTQKEVEVTRTHKREGSGRFSLPGATCLQGEGQGHLSQKKTVTIPSGSTLAFRVAQLVIDSDLDVLLFPDKKQRTFQPPATGHKRSTSEGAWPQLPSGLSMMRCLHNFLTDGVPAEGAFTEDFQGLRAEVETISKELELLDRELCQLLLEGLEGVLRDQLALRALEEALEQGQSLGPVEPLDGPAGAVLECLVLSSGMLVPELAIPVVYLLGALTMLSETQHKLLAEALESQTLLGPLELVGSLLEQSAPWQERSTMSLPPGLLGNSWGEGAPAWVLLDECGLELGEDTPHVCWEPQAQGRMCALYASLALLSGLSQEPH
chain 2: SNEHYLRILTEWEKNSSPGEERGIAFNRLSQCFQNQEAVLNLSDLNLTSLPELPKHISALIVENNKLTSLPKLPAFLKELNADNNRLSVIPELPESLTTLSVRSNQLENLPVLPNHLTSLFVENNRLYNLPALPEKLKFLHVYYNRLTTLPDLPDKLEILCAQRNNLVTFPQFSDRNNIRQKEYYFHFNQITTLPESFSQLDSSYRINISGNPLSTRVLQSLQRLTSSPDYHGPQIYFSMSDGQQNTLHRPLADAVTAWFPENKQSDVSQIWHAFEHEEHANTFSAFLDRLSDTVSARNTSGFREQVAAWLEKLSASAELRQQSFAVAADATESCEDRVALTWNNLRKTLLVHQASEGLFDNDTGALLSLGREMFRLEILEDIARDKVRTLHFVDEIEVYLAFQTMLAEKLQLSTAVKEMRFYGVSGVTANDLRTAEAMVRSREENEFTDWFSLWGPWHAVLKRTEADRWAQAEEQKYEMLENEYSQRVADRLKASGLSGDADAEREAGAQVMRETEQQIYRQLTDEVLALRLSENGSRLHHS

Variants of: B1
Assay: ITC
Conditions: with IpaH7.8 protein (residues 23–565) [Shigella flexneri]

For chain 1 S124R, which Kd is on record?
The Kd was 230 nM.
